Measured values published in the supplement of paper PMC9942255.

Test system: Bacillus subtilis DB104 (SP-AmyQ fusion secretion)
Experiment: AmyQ secretion efficiency, weighted average sort bin (1 = best secretion, 10 = worst) (bin number (weighted average, 1-10)); higher = lower secretion efficiency
Method in brief: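 In this assay, the secretion score is defined as the average bin number weighted by read frequency, normalised to beads per bin, with low-abundance sequences not counted. B. subtilis DB104 cells expressing mature AmyQ behind designed signal peptides (amyE-integrated) were enclosed with fluorescein-starch in ~65 nL alginate beads at about 0.3 cells per bead. Beads grew about 13 h at room temperature, were stained with nile red, and occupied beads went into 10 equally populated green/red fluorescence ratio bins by large-particle flow cytometry, whose amplicons were Illumina-sequenced.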

Row | Sequence | AmyQ secretion efficiency
1 | MAAQTDYKKQVVGILLSLAFVLFVFSCSERHE | 4.02
2 | MAAQTDYKKQVVGILLSLAFVLFVFSPSERHE | 5.34
3 | MAAQTDYKKQVVGILLSLAFVLFVFSRSERHE | 4.39
4 | MAAQTDYKKQVVGILLSLAFVLRRRKFSERHE | 7.65
5 | MAIIIAIIAANVRNASPG | 7.68
6 | MAIIIAIIAAVIVIAALINVRNASPG | 8.6
7 | MAIIIAIIAAVIVIAALITFAVRNASPG | 6.55
8 | MAIIIAIIAAVIVIAALITFEDDEDDDRNASPG | 6.7
9 | MAIIIAIIAAVIVIAALITFEEDERNASPG | 5.02
10 | MAIIIAIIAAVIVIAALITFEVRNASPG | 5.68
11 | MAIIIAIIAAVIVIAALITFIVIVIRNASPG | 6.93
12 | MAIIIAIIAAVIVIAALITFKKRRKRNASPG | 8.46
13 | MAIIIAIIAAVIVIAALITFNRNASPG | 6.99
14 | MAIIIAIIAAVIVIAALITFNVANASPG | 5.63
15 | MAIIIAIIAAVIVIAALITFNVCNASPG | 7.28
16 | MAIIIAIIAAVIVIAALITFNVENASPG | 8.68
17 | MAIIIAIIAAVIVIAALITFNVFNASPG | 7.58
18 | MAIIIAIIAAVIVIAALITFNVGGSPVVSTSTARNASPG | 3.35
19 | MAIIIAIIAAVIVIAALITFNVGNASPG | 5.7
20 | MAIIIAIIAAVIVIAALITFNVGTPRNASPG | 8.5
21 | MAIIIAIIAAVIVIAALITFNVHNASPG | 7.6
22 | MAIIIAIIAAVIVIAALITFNVINASPG | 9.99
23 | MAIIIAIIAAVIVIAALITFNVLNASPG | 6.68
24 | MAIIIAIIAAVIVIAALITFNVMNASPG | 6.23
25 | MAIIIAIIAAVIVIAALITFNVNNASPG | 7.54
26 | MAIIIAIIAAVIVIAALITFNVPNASPG | 6.07

Row | Sequence | AmyQ secretion efficiency
27 | MAIIIAIIAAVIVIAALITFNVQNASPG | 7.71
28 | MAIIIAIIAAVIVIAALITFNVRNADDD | 7.51
29 | MAIIIAIIAAVIVIAALITFNVRNAKKR | 7.34
30 | MAIIIAIIAAVIVIAALITFNVRNASKR | 7.12
31 | MAIIIAIIAAVIVIAALITFNVRNASPE | 6.75
32 | MAIIIAIIAAVIVIAALITFNVRNCSPG | 5.87
33 | MAIIIAIIAAVIVIAALITFNVRNDSPG | 6.52
34 | MAIIIAIIAAVIVIAALITFNVRNESPG | 7.39
35 | MAIIIAIIAAVIVIAALITFNVRNFSPG | 6.5
36 | MAIIIAIIAAVIVIAALITFNVRNGSPG | 7.66
37 | MAIIIAIIAAVIVIAALITFNVRNHSPG | 6.69
38 | MAIIIAIIAAVIVIAALITFNVRNISPG | 7.65
39 | MAIIIAIIAAVIVIAALITFNVRNKSPG | 6.36
40 | MAIIIAIIAAVIVIAALITFNVRNLSPG | 7.04
41 | MAIIIAIIAAVIVIAALITFNVRNMSPG | 7.67
42 | MAIIIAIIAAVIVIAALITFNVRNNSPG | 6.02
43 | MAIIIAIIAAVIVIAALITFNVRNPSPG | 7.75
44 | MAIIIAIIAAVIVIAALITFNVRNQSPG | 9.31
45 | MAIIIAIIAAVIVIAALITFNVRNRSPG | 7.6
46 | MAIIIAIIAAVIVIAALITFNVRNSSPG | 8.62
47 | MAIIIAIIAAVIVIAALITFNVRNVSPG | 8.03
48 | MAIIIAIIAAVIVIAALITFNVRNWSPG | 8.18
49 | MAIIIAIIAAVIVIAALITFNVRNYSPG | 7.13
50 | MAIIIAIIAAVIVIAALITFNVSNASPG | 7.09
51 | MAIIIAIIAAVIVIAALITFNVTNASPG | 7.21
52 | MAIIIAIIAAVIVIAALITFNVVNASPG | 8.99

Row | Sequence | AmyQ secretion efficiency
53 | MAIIIAIIAAVIVIAALITFNVWNASPG | 7.05
54 | MAIIIAIIAAVIVIAALITFRRRNASPG | 8.26
55 | MAIIIAIIAAVIVIAALITFTSNVRNASPG | 7.45
56 | MARKRKIIAAVIVIAALITFNVRNASPG | 6.43
57 | MARRRRRKAAVIVIAALITFNVRNASPG | 6.9
58 | MFFKKTVVSALSISALALSVSGVASAHEI | 3
59 | MFFTIVAGLAVSAVVGSSMAAAPAEAKTI | 2.75
60 | MFFVLMAFIICLSLILSVLAAPPSGAKAESV | 5.38
61 | MFGKLLLATSALTFSLSLVLPLDGHAKAQEV | 3.02
62 | MFGMSTISLLIIFLLASAVLAKPIEAHTV | 2.54
63 | MFGTLFRVCFLAALIMAFTLPNSVYAQKP | 2.52
64 | MFGWMAGLFLAAAVLLCLMVPQQIQGASS | 4.3
65 | MFKFKKNFLFLVGLSAALMSISLFSATASAAST | 1.42
66 | MFKFKKNFLVGLSAALMSIEDEEDDASAAST | 6.33
67 | MFKFKKNFLVGLSAALMSIKKKKRRASAAST | 7.19
68 | MFKFKKNFLVGLSAALMSIKQFSATASAAST | 5.73
69 | MFKFKKNFLVGLSAALMSISLFSATASAADD | 3.08
70 | MFKFKKNFRKKRSAALMSISLFSATASAAST | 4.73
71 | MFKFKKNFRRRRRRALMSISLFSATASAAST | 6.72
72 | MFKFKKNGKSRRTAALMSISLFSATASAAST | 4.18
73 | MFKFKKNTRGGLSAALMSISLFSATASAAST | 3.49
74 | MFKIMSAFVGMVLLTIFCFSPQASAAYD | 3.33
75 | MFKKGYSSYRKRTFSLSLVLPLDGHAKAQEV | 7.96
76 | MFKKHMNNFTISLLIIFLLASAVLAKPIEAHTV | 3.28
77 | MFKKHQRRQRIIFLLASAVLAKPIEAHTV | 6.33
78 | MFKKHSRSLLIIFLLASAVLAKPIEAHTV | 4.1

Row | Sequence | AmyQ secretion efficiency
79 | MFKKHSTISLLIIFLLASAVLAKPIEAHTV | 1.86
80 | MFKKHTISLLIIFLLAATFFSFTSLISAVLAKPIEAHTV | 4.38
81 | MFKKHTISLLIIFLLAEAVLAEPIEAHTV | 2.51
82 | MFKKHTISLLIIFLLALTSAVLAKPIEAHTV | 2.73
83 | MFKKHTISLLIIFLLASAVLAKPAEAHTV | 2.44
84 | MFKKHTISLLIIFLLASAVLAKPCEAHTV | 2.62
85 | MFKKHTISLLIIFLLASAVLAKPEEAHTV | 4.88
86 | MFKKHTISLLIIFLLASAVLAKPGEAHTV | 2.82
87 | MFKKHTISLLIIFLLASAVLAKPIEADEE | 3.49
88 | MFKKHTISLLIIFLLASAVLAKPIEAHDD | 3.1
89 | MFKKHTISLLIIFLLASAVLAKPIEAHTD | 1.8
90 | MFKKHTISLLIIFLLASAVLAKPIEAHTK | 2.17
91 | MFKKHTISLLIIFLLASAVLAKPIEARKK | 2.26
92 | MFKKHTISLLIIFLLASAVLAKPIECHTV | 5.04
93 | MFKKHTISLLIIFLLASAVLAKPIEEHTV | 5.81
94 | MFKKHTISLLIIFLLASAVLAKPIEGHTV | 3.78
95 | MFKKHTISLLIIFLLASAVLAKPIEPHTV | 7.19
96 | MFKKHTISLLIIFLLASAVLAKPIERHTV | 5.58
97 | MFKKHTISLLIIFLLASAVLAKPIEYHTV | 5.13
98 | MFKKHTISLLIIFLLASAVLAKPLEAHTV | 2.46
99 | MFKKHTISLLIIFLLASAVLAKPMEAHTV | 2.67
100 | MFKKHTISLLIIFLLASAVLAKPPPTTATIEAHTV | 7.2
101 | MFKKHTISLLIIFLLASAVLAKPSEAHTV | 2.57
102 | MFKKHTISLLIIFLLASAVLAKPTEAHTV | 2.68
103 | MFKKHTKRKRRKFLLASAVLAKPIEAHTV | 7.89
104 | MFKKHTRKRKIIFLLASAVLAKPIEAHTV | 7.04

Row | Sequence | AmyQ secretion efficiency
105 | MFKKLKRRKSALTFSLSLVLPLDGHAKAQEV | 6.09
106 | MFKKLLLATSALTFSLSLVLDAKAQEV | 2.17
107 | MFKKLLLATSALTFSLSLVLEEDDHAKAQEV | 3.32
108 | MFKKLLLATSALTFSLSLVLKLRGHAKAQEV | 6.07
109 | MFKKLLLATSALTFSLSLVLPLDGHAKAQED | 2.98
110 | MFKKLLLATSALTFSLSLVLPLDGHAKAQSV | 1.96
111 | MFKKLLLATSALTFSLSLVLPLDGHYKAQEV | 6.94
112 | MFKKLLLATSALTFSLSLVLRRKKKHAKAQEV | 5.87
113 | MFKKLLLATSALTFSLSLVLVLSIHAKAQEV | 3.44
114 | MFKKLLLATSALTPLDGHAKAQEV | 5.8
115 | MFKKLRKKKKRLTFSLSLVLPLDGHAKAQEV | 6.86
116 | MFKKPTISLLIIFLLASAVLAKPIEAHTV | 2.38
117 | MFKKQSRATSALTFSLSLVLPLDGHAKAQEV | 6.63
118 | MFKRGIQAFAGGIILATAVLAAVFYLTDEDQAAAV | 5.98
119 | MFLAKRVSALTPSTTLAITAKAKEL | 7.34
120 | MFLFQVSHAIIISVMLSFVIAVFHTIHASELTP | 6.77
121 | MFLKLLLATSALTFSLSLVLPLDGHAKAQEV | 2.93
122 | MFLRKILLSSALSLGMLVSAAPVLATSS | 2.2
123 | MFMKHTISLLIIFLLASAVLAKPIEAHTV | 2.89
124 | MFMKSGMEQAVSVLLLLSRLPVQASLTSE | 9.96
125 | MFMLFMNASLVLFAVVFVFAVKGAPAKAETH | 5.11
126 | MFMLTMNNMAIIIAIIAAVIVIAALITFNVRNASPG | 6.62
127 | MFMMLGSLLITAGILVFFAVVVKDVFAAGL | 6.51
128 | MFMMSTNNFKRFIAAFLVLALMISLVPADVLAKST | 2.59
